The values below come from paper PMC8617373 (Cell Research, 2021).

In the test the target is SARS-CoV-2 S-ECD-hFc (extracellular domain of the spike (S) protein, hFc-tagged) (SARS-CoV-2, UniProt P0DTC2 14-1213). The experiment in a line: flow cytometry on cells. Background: A flow cytometer gives signals particle by particle.

B1: KREMEN1 expressed on HEK293E cells (receptor)
chain: ARPAPSPGLGPECFTANGADYRGTQNWTALQGGKPCLFWNETFQHPYNTLKYPNGEGGLGEHNYCRNPDGDVSPWCYVAEHEDGVYWKYCEIPACQMPGNLGCYKDHGNPPPLTGTSKTSNKLTIQTCISFCRSQRFKFAGMESGYACFCGNNPDYWKYGEAASTECNSVCFGDHTQPCGGDGRIILFDTLVGACGGNYSAMSSVVYSPDFPDTYATGRVCYWTIRVPGASHIHFSFPLFDIRDSADMVELLDGYTHRVLARFHGRSRPPLSFNVSLDFVILYFFSDRINQAQGFAVLYQAVKEELPQERPAVNQTVAEVITEQANLSVSAARSSKVLYVITTSPSHPPQTVPGSNSWAPPMGAGSHRVEGWTVYGLATLLILTVTAIVAKILLHVTFKSHRVPASGDLRDCHQPGTSGEIWSIFYKPSTSISIFKKKLKGQSQQDDRNPLVSD
In the case of B1, the affinity, expressed as Kd, was 19.3 nM.

B2: ASGR1 expressed on HEK293E cells (receptor)
chain: MTKEYQDLQHLDNEESDHHQLRKGPPPPQPLLQRLCSGPRLLLLSLGLSLLLLVVVCVIGSQNSQLQEELRGLRETFSNFTASTEAQVKGLSTQGGNVGRKMKSLESQLEKQQKDLSEDHSSLLLHVKQFVSDLRSLSCQMAALQGNGSERTCCPVNWVEHERSCYWFSRSGKAWADADNYCRLEDAHLVVVTSWEEQKFVQHHIGPVNTWMGLHDQNGPWKWVDGTDYETGFKNWRPEQPDDWYGHGLGGGEDCAHFTDDGRWNDDVCQRPYRWVCETELDKASQEPPLL
For the molecule B2, binding was put at a Kd of 94.8 nM.
